Assay results from patent US20210171647A1 (WUXI BIOLOGICS SHANGHAI, published 2021).

Experiments:
Assay in all cases: ELISA, antibody coated, OX40-ECD.His mutant supernatant; relative to silent alanine substitutions;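 further: captured OX40 mutant protein detected with HRP-labelled anti-His antibody, absorbance read-out, scaled to the mean signal of control mutants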
[1] = biological target: T1, human OX40-ECD.His R55A (human, UniProt P43489 29-214)
T1 construct: extracellular domain; not shown: C-terminal His-tag
T1 sequence (looked up): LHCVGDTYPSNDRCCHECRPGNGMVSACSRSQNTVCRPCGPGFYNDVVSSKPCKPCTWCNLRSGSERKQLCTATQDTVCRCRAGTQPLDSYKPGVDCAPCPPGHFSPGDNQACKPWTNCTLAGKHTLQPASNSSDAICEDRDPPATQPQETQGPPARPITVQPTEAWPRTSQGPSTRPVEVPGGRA

[2] = biological target: T2, human OX40-ECD.His S162A (human, UniProt P43489 29-214)
T2 construct: extracellular domain; not shown: C-terminal His-tag
T2 sequence (looked up): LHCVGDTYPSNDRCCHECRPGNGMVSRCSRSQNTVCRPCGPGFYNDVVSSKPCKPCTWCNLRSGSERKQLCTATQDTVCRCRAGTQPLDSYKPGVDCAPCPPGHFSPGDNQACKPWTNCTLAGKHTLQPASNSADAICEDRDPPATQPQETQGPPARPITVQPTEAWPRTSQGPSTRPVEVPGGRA

[3] = biological target: T3, human OX40-ECD.His V32A (human, UniProt P43489 29-214)
T3 construct: extracellular domain; not shown: C-terminal His-tag
T3 sequence (looked up): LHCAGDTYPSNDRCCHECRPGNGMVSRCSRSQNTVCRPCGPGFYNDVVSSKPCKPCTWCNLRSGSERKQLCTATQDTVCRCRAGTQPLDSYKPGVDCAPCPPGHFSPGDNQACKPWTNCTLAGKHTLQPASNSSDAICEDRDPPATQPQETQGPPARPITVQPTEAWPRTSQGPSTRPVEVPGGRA

[4] = biological target: T4, human OX40-ECD.His A158G (human, UniProt P43489 29-214)
T4 construct: extracellular domain; not shown: C-terminal His-tag
T4 sequence (looked up): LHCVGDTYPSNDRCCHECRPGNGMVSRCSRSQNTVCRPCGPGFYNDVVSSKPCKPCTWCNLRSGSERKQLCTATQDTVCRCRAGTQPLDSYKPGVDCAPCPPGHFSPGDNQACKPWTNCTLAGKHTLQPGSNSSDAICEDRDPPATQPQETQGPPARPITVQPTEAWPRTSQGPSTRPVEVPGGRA

[5] = biological target: T5, human OX40-ECD.His T35A (human, UniProt P43489 29-214)
T5 construct: extracellular domain; not shown: C-terminal His-tag
T5 sequence (looked up): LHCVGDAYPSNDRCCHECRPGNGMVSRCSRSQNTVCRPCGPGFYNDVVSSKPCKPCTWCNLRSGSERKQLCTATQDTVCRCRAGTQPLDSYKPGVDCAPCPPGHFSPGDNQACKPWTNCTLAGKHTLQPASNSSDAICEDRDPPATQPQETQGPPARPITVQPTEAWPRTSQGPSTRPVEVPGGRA

[6] = biological target: T6, human OX40-ECD.His D104A (human, UniProt P43489 29-214)
T6 construct: extracellular domain; not shown: C-terminal His-tag
T6 sequence (looked up): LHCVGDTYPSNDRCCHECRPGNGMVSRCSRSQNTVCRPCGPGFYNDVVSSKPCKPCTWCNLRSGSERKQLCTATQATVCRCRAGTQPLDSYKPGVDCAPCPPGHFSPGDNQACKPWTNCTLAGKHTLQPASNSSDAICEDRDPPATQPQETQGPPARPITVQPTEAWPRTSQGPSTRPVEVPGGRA

[7] = biological target: T7, human OX40-ECD.His D137A (human, UniProt P43489 29-214)
T7 construct: extracellular domain; not shown: C-terminal His-tag
T7 sequence (looked up): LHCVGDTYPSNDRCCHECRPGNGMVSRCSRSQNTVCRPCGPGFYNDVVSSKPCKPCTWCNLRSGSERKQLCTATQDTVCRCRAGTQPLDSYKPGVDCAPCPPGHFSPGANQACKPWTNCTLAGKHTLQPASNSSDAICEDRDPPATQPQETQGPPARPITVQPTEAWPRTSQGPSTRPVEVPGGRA

[8] = biological target: T8, human OX40-ECD.His I165A (human, UniProt P43489 29-214)
T8 construct: extracellular domain; not shown: C-terminal His-tag
T8 sequence (looked up): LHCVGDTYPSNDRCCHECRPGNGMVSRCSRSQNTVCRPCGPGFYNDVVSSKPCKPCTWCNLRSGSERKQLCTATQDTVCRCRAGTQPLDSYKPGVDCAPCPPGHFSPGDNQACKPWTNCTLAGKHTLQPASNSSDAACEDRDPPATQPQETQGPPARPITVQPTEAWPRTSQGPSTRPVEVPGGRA

[9] = biological target: T9, human OX40-ECD.His K120A (human, UniProt P43489 29-214)
T9 construct: extracellular domain; not shown: C-terminal His-tag
T9 sequence (looked up): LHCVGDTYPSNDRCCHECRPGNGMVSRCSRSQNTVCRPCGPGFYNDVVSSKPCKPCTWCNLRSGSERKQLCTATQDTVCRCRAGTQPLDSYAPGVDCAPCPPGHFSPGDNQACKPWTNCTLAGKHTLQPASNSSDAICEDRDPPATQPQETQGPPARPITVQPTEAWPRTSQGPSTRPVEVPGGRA

[10] = biological target: T10, human OX40-ECD.His K142A (human, UniProt P43489 29-214)
T10 construct: extracellular domain; not shown: C-terminal His-tag
T10 sequence (looked up): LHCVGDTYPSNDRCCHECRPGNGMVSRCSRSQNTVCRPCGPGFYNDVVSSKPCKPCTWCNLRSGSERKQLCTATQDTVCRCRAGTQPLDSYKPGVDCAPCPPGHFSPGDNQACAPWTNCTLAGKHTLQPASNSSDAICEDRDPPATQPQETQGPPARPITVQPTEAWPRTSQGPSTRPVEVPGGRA

B1: 1.134.9-u1-IgG1L (antibody, V domains shown)
VH: QVQLQESGPGLVKPSGTLSLTCAVSGGSISSYNWWSWVRQPPGKGLEWIGEIYHGGNTNYNPSLKSRVTMSVDNSKNQFSLKLSSVTAADTAVYYCARAPGDWGGSPYFDFWGQGTLVTVSS
VL: SSELTQDPAVSVALGQTVRITCQGDNLRTYYASWYQQKPGQAPILLIYGRNKRPSGIPDRFSGSSSGNTASLTITGAQAEDEAAYYCNSRDSSGNPVVFGGGTKLTVL
notes: fully human IgG1, lambda
Fold Change [1]: 0.976
Fold Change [2]: 0.998
Fold Change [3]: 1.01
Fold Change [4]: 1.01
Fold Change [5]: 1.02
Fold Change [6]: 0.692
Fold Change [7]: 0.851
Fold Change [8]: 0.871
Fold Change [9]: 0.896
Fold Change [10]: 0.921
